Experimental data from article PMC6359636, “Advances in Drug Delivery and Biomaterials: Facts and Vision” (Pharmaceutics, 2019).

Test system: blood clots
Assay: Blood clot resolution in murine mesentery venules
Format: in vivo
Source text: Here, a novel thrombolytic nanoagent is realized by conjugating directly the clinical formulation of tPA to the porous structure of soft discoidal polymeric nanoconstructs (tPA-DPNs).

B1: Tissue plasminogen activator (protein, UniProt P00750 36-562, looked up)
Tissue-type plasminogen …: SYQVICRDEKTQMIYQQHQSWLRPVLRSNRVEYCWCNSGRAQCHSVPVKSCSEPRCFNGGTCQQALYFSDFVCQCPEGFAGKCCEIDTRATCYEDQGISYRGTWSTAESGAECTNWNSSALAQKPYSGRRPDAIRLGLGNHNYCRNPDRDSKPWCYVFKAGKYSSEFCSTPACSEGNSDCYFGNGSAYRGTHSLTESGASCLPWNSMILIGKVYTAQNPSAQALGLGKHNYCRNPDGDAKPWCHVLKNRRLTWEYCDVPSCSTCGLRQYSQPQFRIKGGLFADIASHPWQAAIFAKHRRSPGERFLCGGILISSCWILSAAHCFQERFPPHHLTVILGRTYRVVPGEEEQKFEVEKYIVHKEFDDDTYDNDIALLQLKSDSSRCAQESSVVRTVCLPPADLQLPDWTECELSGYGKHEALSPFYSERLKEAHVRLYPSSRCTSQHLLNRTVTDNMLCAGDTRSGGPQANLHDACQGDSGGPLVCLNDGRMTLVGIISWGLGCGQKDVPGVYTKVTNYLDWIRDNMRP
With B1 the “clots dissolved / vessels” value (1.0 mg/kg, about 1 tenth of the clinical dose) was 16% and the “blood clots resolved / vessels recanalized” value (intravenous, 2.5 mg/kg) was “about 40%”.
